Data reported in patent US9868960B2, “Placental like alkaline phosphatase (PLAP) promoter mediated cell targeting” (priority 2013, dated 2018).
“Also recorded” adds a separate entry of the source.

Experiments:
[1] = system: HPV-16 enhancer in SiHa cells; assay: Chip assay of H3K9me2 and H3K27me3 at the targeted enhancer; format: cell-based; conditions: harvested after 5 days
Method: FIG. 13: Elucidating the mechanism of transcriptional gene silencing: (A) SiHa cells untreated or treated with TSA were transfected with NFκB+PLAP enhancer-promoter chimera expressing test & scrambled shRNA and harvested after 5 days. Chip was performed with antibodies against H3K9me2 and H3K27me3; antibodies against RNA polymerase and mouse IgG were respectively used as positive and negative controls for pull down. Input and immuno-precipitated DNA were measured by PCR with requisite primers and the enrichment at enhancer region was further quantified by qPCR.
Using chip assay, we assessed the level of histone H3K9 dimethylation (H3K9me2) and H3K27 trimethylation (H3K27me3), two repressive epigenetic marks shown to increase as a result of TGS.

[2] = system: PLAP negative cell lines HepG2 (Hepatoma) & CHO; assay: Dual luciferase reporter assay of promoter/enhancer-promoter constructs in PLAP negative cell lines; format: cell-based; conditions: PLAP negative/control cell lines HepG2 & CHO, 48 hours post transfection
Method: (§1) All transfections were performed using Lipofectamine™ 2000 transfection reagent according to manufacturer's instruction (Invitrogen). Briefly, (1×10^6/well) cells were cultured in 6-well plates overnight. The luciferase reporter vectors (PLAP-luc, NFκB+PLAP−luc & pG13 Basic; 1 μg well^−1) were co-transfected in 20:1 ratio with Renilla luciferase expression vector (pRL-TK), an internal control for normalisation of the transcriptional activity of the reporter vectors. Forty-eight hours post transfection, the cells were lysed and luciferase activities were assayed using Dual Luciferase Assay reagents (Promega) according to manufacturer's protocol. All transfections were performed in triplicate and all experiments were repeated at least twice.
(§2) The region of PLAP promoter spanning from −170 to +24 containing invariant TATA boxes (nucleotides −31 to −25) & Sp1 binding sites (nucleotides −84 to −76) cloned in promoter less luciferase expression vector PGL3 basic was transfected in battery of PLAP positive cell cervical cell lines (HeLa, SiHa and CaSki) and appropriate PLAP negative cell lines HepG2 (Hepatoma) & CHO. Promoter activity was assayed in these in vitro model systems by dual luciferase assay.
(§3) To develop an optimal enhancer-promoter system for improving the transcriptional activity of PLAP promoter a fusion construct comprising of PLAP promoter & tetramer of NFKB binding sites cloned in PGL3 basic was evaluated by dual luciferase assay in the above mentioned cell lines. Furthermore, we compared the transcriptional activity of PLAP promoter/enhancer systems with strong SV40 virus promoter (PGL3 C).

[3] = system: PLAP positive cell lines (HeLa, SiHa, CaSki, Caco-2); assay: Dual luciferase reporter assay of promoter/enhancer-promoter constructs in PLAP positive cell lines; format: cell-based, human; conditions: for transcriptional activity (relative luciferase activity over pGL3-Basic): PLAP positive cell lines, 48 hours post transfection, normalised by Renilla; for tissue specificity of luciferase expression: PLAP positive versus PLAP negative cell lines; for tissue specificity of luciferase expression / trend of construct activity (strength): FIG. 6; for trend of construct activity (strength): luciferase reporter constructs
Method: as §1, §2, §3

[4] = listed as NFκB+PLAP promoter enhancer systems

CC(/C=C/C(=O)NO)=C\[C@@H](C)C(=O)c1ccc(N(C)C)cc1 [trichostatin]
levels of H3K9me2 and H3K27me3 at the targeted enhancer [1]: reduced this enrichment

B1: PLAP promoter: human PLAP promoter region −170 to +24 cloned in promoter less luciferase expression vector pGL3 Basic (nucleic acid, listed as Homo sapiens)
DNA: AAGCTGCCTTTCTCAGGACCCCAGCCCCAGCCCAGCCCAGCCACACCCTGCGACTCTCTTCAGCCAGTGTGGCTTCAGGTCAAGAGGCTGGGCGGGGTCAAGGTGGTAACAAGGGGAGGGGCCAGGACACAGTTTTCCCTGATTTAAACCCAGGCAGCCTGGAGTGCAGCTCATACTCCATACCTGGGATTTCCGC
modifications: in pGL3 Basic luciferase vector; DNASequence (1)..(196) Unique PLAP promoter Sequence
notes: human PLAP promoter region −170 to +24 cloned in promoter less luciferase expression vector pGL3 Basic
transcriptional activity (relative luciferase activity over pGL3-Basic) [2]: little or no activity in the control cell lines; also recorded: not in PLAP negative cell line | transcriptional activity (relative luciferase activity over pGL3-Basic) [3]: of optimum level only in carcinoma cell lines expressing PLAP; also recorded: selective transcriptional activity in all the PLAP positive cell lines | tissue specificity of luciferase expression [3]: tissue selective expression | trend of construct activity (strength) [3]: NFκB−PLAP Pr>SV40 Pr>PLAP Pr

B2: NFKB−PLAP enhancer-promoter system: tetramer of NFκB DNA binding sites (GGGAATTTCC) upstream of PLAP promoter −170 to +24 in pGL3 Basic luciferase vector (nucleic acid)
DNA: GGGAATTTCCGGGAATTTCCGGGAATTTCCGGGAATTTCCAAGCTGCCTTTCTCAGGACCCCAGCCCCAGCCCAGCCCAGCCACACCCTGCGACTCTCTTCAGCCAGTGTGGCTTCAGGTCAAGAGGCTGGGCGGGGTCAAGGTGGTAACAAGGGGAGGGGCCAGGACACAGTTTTCCCTGATTTAAACCCAGGCAGCCTGGAGTGCAGCTCATACTCCATACCTGGGATTTCCGC
modifications: in pGL3 Basic luciferase vector; Enhancer (NFKB)-Promoter (PLAP) Sequence.
transcriptional activity (relative luciferase activity over pGL3-Basic) [2]: not in PLAP negative cell line | transcriptional activity (relative luciferase activity over pGL3-Basic) [2, 4]: little or no activity in the control cell lines | transcriptional activity (relative luciferase activity over pGL3-Basic) [3]: selective transcriptional activity in all the PLAP positive cell lines; also recorded: highly comparable to that of strong SV40 virus promoter | transcriptional activity (relative luciferase activity over pGL3-Basic) [3, 4]: of optimum level only in carcinoma cell lines expressing PLAP | tissue specificity of luciferase expression [3]: tissue selective expression | trend of construct activity (strength) [3]: NFκB−PLAP Pr>SV40 Pr>PLAP Pr
